{
  "source": "patent US10709762B2",
  "about": "“Use of M-CSF for preventing or treating myeloid cytopenia and related complications” (priority 2013, dated 2020)",
  "molecules": {"B1": {"name": "M-CSF: recombinant murine macrophage colony stimulating factor from PeproTech, used in Example 1 (protein, UniProt P07141 33-552, looked up)", "Macrophage colony-stimulating …": "KEVSEHCSHMIGNGHLKVLQQLIDSQMETSCQIAFEFVDQEQLDDPVCYLKKAFFLVQDIIDETMRFKDNTPNANATERLQELSNNLNSCFTKDYEEQNKACVRTFHETPLQLLEKIKNFFNETKNLLEKDWNIFTKNCNNSFAKCSSRDVVTKPDCNCLYPKATPSSDPASASPHQPPAPSMAPLAGLAWDDSQRTEGSSLLPSELPLRIEDPGSAKQRPPRSTCQTLESTEQPNHGDRLTEDSQPHPSAGGPVPGVEDILESSLGTNWVLEEASGEASEGFLTQEAKFSPSTPVGGSIQAETDRPRALSASPFPKSTEDQKPVDITDRPLTEVNPMRPIGQTQNNTPEKTDGTSTLREDHQEPGSPHIATPNPQRVSNSATPVAQLLLPKSHSWGIVLPLGELEGKRSTRDRRSPAELEGGSASEGAARPVARFNSIPLTDTGHVEQHEGSSDPQIPESVFHLLVPGIILVLLTVGGLLFYKWKWRSHRDPQTLDSSVGRPEDSSLTQDEDRQVELPV"}},
  "key": {"HSC [1]": {"system": "HSC", "assay": "Transplantation of M-CSF primed HSC into sub-lethally irradiated recipients, analysis of progeny", "assay_type": "in vivo, mice", "procedure": "(§1) CD45.1 and C57Bl/6 mice were obtained from Charles River. PU.1-GFP^31 M-CSFR^−/−27 and PU.1^fl/fl 32 mice have been described. Age- and sex-matched CD45.1 recipients that were reconstituted as described^3 with CD45.2 foetal liver from wt or M-CSFR^−/− embryos^27 and PU.1^fl/fl or PU.1^fl/fl::MxCre bone marrow, were used to isolate CD150+CD34− KSLF HSC not earlier than 8 weeks after reconstitution. For in vivo injections the 10 μg/mouse M-CSF, 5 mg/kg LPS (055:B5 E. coli) or sorted cells were injected in 100 μl of PBS into the retro-orbital sinus. For HSC transplantation 400 CD150+CD34− KSLF HSC were sorted from CD45.2 mice and mixed with 100.000 Lin^+ Sca^− CD45.1 carrier cells prior to injection into sub-lethally irradiated (4.5 Gy) CD45.1 recipient mice. For competitive transplantations, 1300 CD150+, CD34-KSLF HSC were isolated 16 h after control or 10 μg M-CSF injection from actin-GFP CD45.2 mice^33, mixed with equal numbers of CD45.2 competitor HSC and injected with 300.000 Lin^+ Sca^− RC-lysed CD45.1 carrier cells into sub-lethally irradiated (4.5 Gy) CD45.1 recipients. Contribution to platelets, CD19+ B-cells and CD11b+ myeloid cells was analysed after 4 and 6 weeks in the blood from mice with at least 5% GFP+ donor cells. For PU.1 deletion PU.1^fl/fl or PU.1^fl/fl::MxCre reconstituted mice were intra-peritoneally injected with 5 μg/g Polyinosinic:polycytidylic acid 7 and 9 days prior to control (PBS) or 10 μg M-CSF injection. All mouse experiments were performed under specific pathogen-free conditions in accordance with institutional guidelines.\n(§2) For FACS sorting and analysis we used described staining protocols^3 and published stem and progenitor cell definitions^34, FACSCANTO™ BD™ LSRII and FACSARIA™ III equipment and DIVA™ software (BECTON-DICKINSON), analysing only populations with at least 200 events. For HSC analysis we used antibodies anti-CD34-FITC (clone RAM34, BD BIOSCIENCES), anti-CD135-PE (clone A2F10.1, BD BIOSCIENCES), anti-CD150-Pe-Cy7 (clone TC15-12F12.2, BIOLEGEND), anti-CD117-APC H7 (clone 2B8, BD BIOSCIENCES), anti-Sca-1-Pe-Cy5 (clone D7, BIOLEGEND), anti-CD48-APC (clone HM48-1, BIOLEGEND). Diverging from this or in addition we used antibodies anti-CD34 Alexa 700 (clone RAM34, BD BIOSCIENCES), anti-CD16/32 PE (clone 2.4G2, BD BIOSCIENCES), anti-CD11b PE-CF594 (clone M1/70, BD BIOSCIENCES), anti-CD19PE-Cy7 (clone 1D3, BD biosciences), anti CD45.2 APC (clone 104, BD BIOSCIENCES) and anti CD45.1 Pacific Blue (clone A20, BD BIOSCIENCES) for progenitor and blood cell analysis. LIVE/DEAD Fixable Violet Dead cell dye (Invitrogen) was used as viability marker."}, "HSC [2]": {"system": "HSC", "assay": "Competitive transplantation of M-CSF primed HSC, blood cell contribution", "assay_type": "in vivo", "procedure": "as §1"}, "[3]": {"system": "PU.1 in HSC of PU.1-GFP reporter mice", "assay": "PU.1-GFP reporter activation in HSC after in vivo injection (FACS)", "procedure": "as §1, §2"}},
  "data": [
    {"molecule": "B1", "values": [
      {"measurement": "myeloid differentiation preference of M-CSF primed HSC after deletion of PU.1", "setting": "HSC [1]; HSC with deleted PU.1 alleles, spleen 2 weeks", "value": "abolished"},
      {"measurement": "ratio of GMP to MEP progenitors in the spleen", "setting": "HSC [1]; in vivo M-CSF primed CD45.2 HSC, after 2 weeks", "value": "increased ratio"},
      {"measurement": "myeloid to lymphoid cell ratio in peripheral blood", "setting": "HSC [1]; in vivo M-CSF primed HSC, after 4 weeks", "value": "increased myeloid to lymphoid cell ratio"},
      {"measurement": "ratio of GMP to MEP developing from PU.1+ HSC versus PU.1- HSC", "setting": "HSC [1]; in vivo priming with M-CSF, spleen 2 weeks after transplantation", "value": "higher ratio"},
      {"measurement": "long-term multi-lineage contribution", "setting": "HSC [2]", "value": "did not compromise"},
      {"measurement": "myeloid contribution compared to platelet and lymphoid contribution in the blood", "setting": "HSC [2]; after 6 weeks", "value": "re-equilibrated"},
      {"measurement": "myeloid contribution compared to platelet and lymphoid contribution in the blood", "setting": "HSC [2]; at 4 weeks", "value": "myeloid advantage"},
      {"measurement": "PU.1 activation in CD150hi HSC compared with total HSC", "setting": "[3]; 16 h after injection", "value": "activated PU.1 to a similar extent"},
      {"measurement": "change in M-CSFR or MafB expression", "setting": "[3]; HSC after M-CSF injection", "value": "no significant change"},
      {"measurement": "PU.1 activation in HSC", "setting": "[3]; PU.1-GFP reporter mice, direct intravenous injection, after 16 h", "value": "significantly increased PU.1 activation"},
      {"measurement": "change in the proportion of CD150hi HSC", "setting": "[3]; in GFP-positive or -negative HSC", "value": "no change"}
    ]}
  ]
}
